Source: PMC13529201

Biological target: His-tagged Pasteurella lipoprotein E (PlpE) of P. multocida (Pasteurella multocida)
Assay: BLI

B1: ABCF2 used as analyte in bio-layer interferometry (natural protein)
chain: MPSDLAKKKAAKKKEAAKARQRPRKGHEENGDVVTEPQVAEKNEANGRETTEVDLLTKELEDFEMKKAAARAVTGVLASHPNSTDVHIINLSLTFHGQELLSDTKLELNSGRRYGLIGLNGIGKSMLLSAIGKREVPIPEHIDIYHLTREMPPSDKTPLHCVMEVDTERAMLEKEAERLAHEDAECEKLMELYERLEELDADKAEMRASRILHGLGFTPAMQRKKLKDFSGGWRMRVALARALFIRPFMLLLDEPTNHLDLDACVWLEEELKTFKRILVLVSHSQDFLNGVCTNIIHMHNKKLKYYTGNYDQYVKTRLELEENQMKRFHWEQDQIAHMKNYIARFGHGSAKLARQAQSKEKTLQKMMASGLTERVVSDKTLSFYFPPCGKIPPPVIMVQNVSFKYTKDGPCIYNNLEFGIDLDTRVALVGPNGAGKSTLLKLLTGELLPTDGMIRKHSHVKIGRYHQHLQEQLDLDLSPLEYMMKCYPEIKEKEEMRKIIGRYGLTGKQQVSPIRNLSDGQKCRVCLAWLAWQNPHMLFLDEPTNHLDIETIDALADAINEFEGGMMLVSHDFRLIQQVAQEIWVCEKQTITKWPGDILAYKEHLKSKLVDEEPQLTKRTHNV
- Kd: 970 nM
